These results are taken from doi:10.1101/2024.11.16.623920.

What all share (experiment): FRET or BRET
A general note: BRET reads energy transfer from a luciferase to a nearby fluorophore.

Experiment [1] addresses CaGpi2-His6 (C. albicans Gpi2, GPI-GnT subunit, tagged with His6 at the C-terminus) (C. albicans) (UniProt Q5A6L6).
The target in experiment [2] is CaGpi3 (C. albicans Gpi3, GPI-GnT subunit) (C. albicans (endogenous in BWP17-derived cells)).
The target of experiment [3] is CaGpi8 (C. albicans Gpi8, subunit of the GPI-transamidase) (C. albicans (endogenous in the cells)).

For the molecule “CaRas1 (C. albicans Ras1) (natural protein)”, in experiment [1], the spatial distance r (AP-FRET) was found to be 5.3 nm.

B1: CaArv1-V5 (C. albicans Arv1 tagged with V5 at its C-terminus) (natural protein)
chain: MICIECGYSNIDCLYSKYKSDYIKLSVCPECNKIADKYIEYDSVILFLDILLLKRQAYKHLAYNLTEMEMEIGSSTNFHINDNTNFKFFHTYRKLMKLIFMILSFEVYLTWANEEKLLIHSQLINLIFNQSVVYQYLFFIIKSSLENLILNLSLQLILRLGYKWGQGPQKINGNIRDKELFGYKTSVLLVTTMVSGSIRLFPILMFIWPYDNISITKPLINLIAFINIVEALRVVTSLGYVELILSLAFSIVIRNIVSKSLLVLIVRLFLDFNFTEVYYNEMYQLYSQIQTYIRWI
Consider B1, for which the spatial distance r (AP-FRET) in experiment [2] is 6.3 nm; in experiment [3], > 10 nm.
